3 variants from FireProtDB (doi:10.1074/jbc.270.30.17712) can be followed below.

“And” between values parts separate entries of the source, which are not always exact repeats. Equal values may be shown once.

B1: Tryptophan synthase alpha chain, P0A877 (parent)
chain: MERYESLFAQLKERKEGAFVPFVTLGDPGIEQSLKIIDTLIEAGADALELGIPFSDPLADGPTIQNATLRAFAAGVTPAQCFEMLALIRQKHPTIPIGLLMYANLVFNKGIDEFYAQCEKVGVDSVLVADVPVEESAPFRQAALRHNVAPIFICPPNADDDLLRQIASYGRGYTYLLSRAGVTGAENRAALPLNHLVAKLKEYNAAPPLQGFGISAPDQVKAAIDAGAAGAISGSAIVKIIEQHINEPEKMLAALKVFVQPMKAATRS

The data set covers variants of B1. The following applies: Escherichia coli (strain K12); pH 7.8; 23 °C; Urea; Absorbance; Potassium phosphate 10 mM; transition: 3; reversible: yes; structure 1WQ5; whole UniProt chain shown.

On to MERYESLFAQLKERKEGAFVPFVTLGDPGIEQSLKIIDTLIEAGADALELGIPFSDPLADGPTIQNATLRAFAAGVTPAQCFEMLALIRQKHPTIPIGLLMYANLVFNKGIDEFYAQCEKVGVDSVLVADVPVEESAPFRQAALRHNVAPIFICPPNADDDLLRQIASYGRGYTYLLSRAGVTGAENRAALPLNHLVAKLKEYNAAPPLQGFGISAPDQVKAAIDAGAAGAISGSAIVKIIEQHINEPEKMLAALKVWVQPMKAATRS [F258W], for which the “ddG of mutation (higher = less stable)” value was 1.4 kcal/mol and 1 kcal/mol; the denaturant m value is 1.9 kcal/mol/M and 1.2 kcal/mol/M; the “denaturant midpoint (higher = more stable)” value (shortened to “denaturant midpoint”) is 2.68 M and 3.58 M; the unfolding free energy was 5 kcal/mol and 4.2 kcal/mol.
Consider MERYESLFAQLKERKEGAFVPFVTLGDPGIEQSLKIIDTLIEAGADALELGIPFSDPLADGPTIQNATLRAFAAGVTPAQCFEMLALIRQKHPTIPIGLLMYANLVFNKGIDEFYAQCEKVGVDSVLVADVPVEESAPWRQAALRHNVAPIFICPPNADDDLLRQIASYGRGYTYLLSRAGVTGAENRAALPLNHLVAKLKEYNAAPPLQGFGISAPDQVKAAIDAGAAGAISGSAIVKIIEQHINEPEKMLAALKVFVQPMKAATRS [F139W], for which the “ddG of mutation (higher = less stable)” value was 0.7 kcal/mol and 0.6 kcal/mol; the denaturant m value is 2.3 kcal/mol/M and 1.2 kcal/mol/M; the “denaturant midpoint” value is 2.46 M and 3.8 M; the unfolding free energy is 5.7 kcal/mol and 4.6 kcal/mol.
Take MERYESLFAQLKERKEGAFVPFVTLGDPGIEQSLKIIDTLIEAGADALELGIPFSDPLADGPTIQNATLRAFAAGVTPAQCFEMLALIRQKHPTIPIGLLMYANLVFNKGIDEFYAQCEKVGVDSVLVADVPVEESAPWRQAALRHNVAPIFICPPNADDDLLRQIASYGRGYTYLLSRAGVTGAENRAALPLNHLVAKLKEYNAAPPLQGFGISAPDQVKAAIDAGAAGAISGSAIVKIIEQHINEPEKMLAALKVWVQPMKAATRS [F139W F258W]: the “ddG of mutation (higher = less stable)” value came to 0.8 kcal/mol; the denaturant m value was 2.1 kcal/mol/M and 1.3 kcal/mol/M; the “denaturant midpoint” value was 2.67 M and 3.51 M; the unfolding free energy was 5.6 kcal/mol and 4.4 kcal/mol.
